The record followed here is article PMC4652344.

The experiment has as its target sulfonylurea receptor 1 (Sur1) (mouse (endogenous in lumbar spinal cord)). Kind of experiment: FRET or BRET; immunoFRET on 7 um cryosections of lumbar spinal cord of pid-30 WT/EAE mice; custom anti-Sur1 and anti-Trpm4 primary antibodies, secondary antibodies conjugated with Cy3 or Cy5; control: omission of one of the two primary antibodies. On the technique in general: In BRET a luciferase serves as donor, and the signal depends on an acceptor being close.

Chain of sulfonylurea receptor 1 (Sur1) (mouse (endogenous in lumbar spinal cord)) (B2RUS7 entry or part of it): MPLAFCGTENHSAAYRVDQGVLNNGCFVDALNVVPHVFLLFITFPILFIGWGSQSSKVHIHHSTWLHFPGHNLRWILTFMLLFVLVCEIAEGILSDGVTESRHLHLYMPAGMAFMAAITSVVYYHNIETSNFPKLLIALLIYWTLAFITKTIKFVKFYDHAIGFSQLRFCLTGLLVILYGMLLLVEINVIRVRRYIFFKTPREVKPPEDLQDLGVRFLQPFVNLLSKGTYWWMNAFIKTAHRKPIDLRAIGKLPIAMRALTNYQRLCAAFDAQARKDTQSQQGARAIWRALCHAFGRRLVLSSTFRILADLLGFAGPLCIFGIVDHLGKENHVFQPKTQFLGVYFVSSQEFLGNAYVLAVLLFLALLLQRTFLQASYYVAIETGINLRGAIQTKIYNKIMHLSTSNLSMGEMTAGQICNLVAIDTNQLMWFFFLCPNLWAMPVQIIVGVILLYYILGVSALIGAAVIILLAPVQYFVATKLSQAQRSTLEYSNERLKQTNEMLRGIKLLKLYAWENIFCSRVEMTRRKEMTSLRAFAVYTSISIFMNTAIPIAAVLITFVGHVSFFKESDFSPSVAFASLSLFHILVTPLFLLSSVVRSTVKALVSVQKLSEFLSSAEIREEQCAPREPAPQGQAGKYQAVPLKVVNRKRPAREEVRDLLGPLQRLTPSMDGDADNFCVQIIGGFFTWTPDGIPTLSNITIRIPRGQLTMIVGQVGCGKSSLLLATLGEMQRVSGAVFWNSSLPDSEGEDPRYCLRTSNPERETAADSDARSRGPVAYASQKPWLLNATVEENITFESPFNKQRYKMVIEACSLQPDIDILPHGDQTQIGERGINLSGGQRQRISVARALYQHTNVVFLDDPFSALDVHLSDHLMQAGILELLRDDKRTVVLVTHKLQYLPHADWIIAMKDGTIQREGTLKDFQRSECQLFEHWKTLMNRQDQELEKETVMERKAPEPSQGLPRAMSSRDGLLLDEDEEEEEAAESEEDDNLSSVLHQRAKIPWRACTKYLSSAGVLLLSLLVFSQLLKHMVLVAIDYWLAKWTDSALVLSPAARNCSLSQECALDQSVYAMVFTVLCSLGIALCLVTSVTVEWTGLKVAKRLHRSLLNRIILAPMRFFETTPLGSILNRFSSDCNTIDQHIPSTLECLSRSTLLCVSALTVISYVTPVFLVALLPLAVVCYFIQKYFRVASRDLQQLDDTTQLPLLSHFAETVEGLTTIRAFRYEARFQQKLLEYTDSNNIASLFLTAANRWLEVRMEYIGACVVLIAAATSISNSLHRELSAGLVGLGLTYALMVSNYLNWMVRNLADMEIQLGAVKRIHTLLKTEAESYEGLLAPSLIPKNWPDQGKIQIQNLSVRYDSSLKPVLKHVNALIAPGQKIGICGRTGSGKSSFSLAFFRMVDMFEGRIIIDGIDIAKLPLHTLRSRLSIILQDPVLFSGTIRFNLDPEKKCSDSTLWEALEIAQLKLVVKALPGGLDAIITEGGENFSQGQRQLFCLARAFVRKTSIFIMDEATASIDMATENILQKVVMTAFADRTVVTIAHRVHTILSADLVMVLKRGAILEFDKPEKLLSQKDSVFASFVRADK

“transient receptor potential melastatin 4 (Trpm4) (from UniProt Q7TN37 1-1213) (natural protein)” registered an FRET efficiency of 10 to 14%.
